Laboratory results from doi:10.1101/2021.07.14.452313.

Biological target: biotinylated hACE2-fc (residues 18-740) (human) (UniProt Q9BYF1)
Assay: SPR

UniProt Q9BYF1, sequence (Q9BYF1 18-740): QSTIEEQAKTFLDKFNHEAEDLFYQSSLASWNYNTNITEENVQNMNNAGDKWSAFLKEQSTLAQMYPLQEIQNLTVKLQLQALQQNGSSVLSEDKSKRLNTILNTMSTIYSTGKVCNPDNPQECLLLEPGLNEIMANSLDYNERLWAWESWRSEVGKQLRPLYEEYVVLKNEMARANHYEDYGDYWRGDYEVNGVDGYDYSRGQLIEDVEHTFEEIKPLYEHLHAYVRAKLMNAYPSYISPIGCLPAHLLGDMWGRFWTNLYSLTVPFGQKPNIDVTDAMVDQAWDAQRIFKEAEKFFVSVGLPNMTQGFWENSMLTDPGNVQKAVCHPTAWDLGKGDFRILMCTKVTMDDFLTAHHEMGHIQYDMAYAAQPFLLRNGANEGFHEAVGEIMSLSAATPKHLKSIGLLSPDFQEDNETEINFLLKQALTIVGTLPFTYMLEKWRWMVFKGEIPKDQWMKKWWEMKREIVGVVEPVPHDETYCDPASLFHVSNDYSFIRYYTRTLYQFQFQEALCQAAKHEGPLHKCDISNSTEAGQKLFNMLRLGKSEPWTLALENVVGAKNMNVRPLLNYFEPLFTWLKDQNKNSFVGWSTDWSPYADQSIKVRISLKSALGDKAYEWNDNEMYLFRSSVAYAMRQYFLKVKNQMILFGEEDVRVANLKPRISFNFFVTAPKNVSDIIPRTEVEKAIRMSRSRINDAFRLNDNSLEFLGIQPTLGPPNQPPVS

Row | Substance | KD1 (first step, two state fit) [nM] | Kd [pM] | ka1 (first step, two state fit) [M⁻¹ s⁻¹] | ka2 (second step, two state fit) [M⁻¹ s⁻¹] | kd1 (first step, two state fit) [s⁻¹] | kd2 (second step, two state fit) [s⁻¹]
1 | SARS-CoV-2 wt trimeric spike protein (domain or fragment) | 1.8 | 41 | 782000 | 0.0105 | 0.00141 | 0.000244
2 | SARS-CoV-2 B.1.1.7 trimeric spike protein (domain or fragment) | 193 | 40 | 1.31e+06 | 0.053 | 0.025 | 0.00011
